This is an account of results in the Immune Epitope Database (IEDB).

pIC50: −log10 of the molar value.

In one test the target is HLA-A*02:03. The test is described as follows: IEDB peptide-MHC binding, cellular MHC/competitive/fluorescence; ≥ and ≤ were set here for values at or beyond the usual limits of such assays.
Test [1] addresses HLA-A*02:02. Described as above.
For test [2], the target named is HLA-A*02:01. Described as above.
The target in test [3] is HLA-A*02:06. The test is described as follows: IEDB peptide-MHC binding, purified MHC/competitive/radioactivity; ≥ and ≤ were set here for values at or beyond the usual limits of such assays.
Test [4] deals with HLA-A*68:02. The description is as above.
Test [5] has as its target HLA-A*02:01. The test is described as above.
The target of test [6] is HLA-A*02:06. Put plainly: IEDB peptide-MHC binding, cellular MHC/competitive/fluorescence; ≥ and ≤ were set here for values at or beyond the usual limits of such assays. The settings on record: source organism: Vaccinia virus WR.
The target of test [7] is HLA-A*68:02. The test is described as above. The conditions noted are these: source organism: Vaccinia virus WR.
Test [8] addresses HLA-A*02:02. The test is described as follows: IEDB peptide-MHC binding, purified MHC/competitive/radioactivity; ≥ and ≤ were set here for values at or beyond the usual limits of such assays. The settings on record: source organism: Vaccinia virus WR.
Setting [9] is: source organism: Vaccinia virus WR.
The mark [10] stands for this setting: source organism: Mammarenavirus guanaritoense.
Where [11] appears, read: source organism: Mammarenavirus choriomeningitidis.

For orientation: pIC50 means the IC50 on a negative log10 scale, so that one unit is a factor of ten. Turning to CAVIPFDDI, the pIC50 is 5.00 with HLA-A*02:03 (setting [9]); 4.80 with HLA-A*02:02 [1] (setting [9]); 4.77 in the test with HLA-A*02:01 [2] (setting [9]); 5.93 with HLA-A*02:06 [3] (setting [9]); 7.64 in the test with HLA-A*68:02 [4] (setting [9]).

As for CAVNTPVSM, the pIC50 with HLA-A*02:03 (setting [9]) was 4.80; in the test with HLA-A*02:02 [1] (setting [9]), 5.20; with HLA-A*02:01 [2] (setting [9]), 4.31; with HLA-A*02:06 [3] (setting [9]) it was 5.82; in the test with HLA-A*68:02 [4] (setting [9]), 6.30.

Turning to CNYTRFWYI, the pIC50 was 5.27 with HLA-A*02:03 (setting [10]); 5.00 in the test with HLA-A*02:02 [1] (setting [10]); 6.59 with HLA-A*02:06 [3] (setting [10]); 6.46 with HLA-A*68:02 [4] (setting [10]); 5.78 with HLA-A*02:01 [5] (setting [10]).

Turning to DIIDLLLPST, the pIC50 is 5.18 with HLA-A*02:03 (setting [9]); 4.84 in the test with HLA-A*02:02 [1] (setting [9]); 6.55 with HLA-A*02:06 [3] (setting [9]); 6.79 in the test with HLA-A*68:02 [4] (setting [9]); 6.02 in the test with HLA-A*02:01 [5] (setting [9]).

As to DIKYDNKLL, the pIC50 is at most 4.15 with HLA-A*02:06 [6]; 4.30 with HLA-A*02:03 (setting [9]); 4.61 with HLA-A*68:02 [7]; 4.58 with HLA-A*02:01 [2] (setting [9]); 5.85 with HLA-A*02:02 [8].

For the sequence DTMRIYCSL, the negative-log IC50 (pIC50) in the test with HLA-A*02:03 (setting [9]) is 5.26; in the test with HLA-A*02:02 [1] (setting [9]), 5.23; with HLA-A*02:06 [3] (setting [9]) it was 5.54; with HLA-A*68:02 [4] (setting [9]), 8.89; with HLA-A*02:01 [5] (setting [9]), 5.47.

Regarding ETQSGALEVL, the negative logarithm of the IC50 (pIC50) was 4.84 with HLA-A*02:03 (setting [9]); 5.28 with HLA-A*02:02 [1] (setting [9]); 5.29 in the test with HLA-A*02:01 [2] (setting [9]); 5.80 with HLA-A*02:06 [3] (setting [9]); 7.24 in the test with HLA-A*68:02 [4] (setting [9]).

Consider EVRYIDITNI, for which the pIC50 in the test with HLA-A*02:03 (setting [9]) is 5.24; in the test with HLA-A*02:02 [1] (setting [9]), 4.89; with HLA-A*02:01 [2] (setting [9]) it was 5.07; in the test with HLA-A*02:06 [3] (setting [9]), 5.36; with HLA-A*68:02 [4] (setting [9]) it was 7.39.

Take FSLGAAVKA: the pIC50 in the test with HLA-A*02:03 (setting [11]) is 4.87; with HLA-A*02:02 [1] (setting [11]) it was 5.19; with HLA-A*02:01 [2] (setting [11]), 4.96; with HLA-A*02:06 [3] (setting [11]), 6.49; with HLA-A*68:02 [4] (setting [11]), 5.75.

Consider FTDCRTIDAI, for which the pIC50 with HLA-A*02:03 (setting [9]) was 4.89; with HLA-A*02:02 [1] (setting [9]) it was 5.02; with HLA-A*02:06 [3] (setting [9]), 6.12; with HLA-A*68:02 [4] (setting [9]), 6.77; in the test with HLA-A*02:01 [5] (setting [9]), 5.74.

With FTHTTAFFNT, the pIC50 is 4.99 with HLA-A*02:03 (setting [9]); 4.76 with HLA-A*02:02 [1] (setting [9]); 5.00 in the test with HLA-A*02:01 [2] (setting [9]); 7.29 with HLA-A*02:06 [3] (setting [9]); 5.99 with HLA-A*68:02 [4] (setting [9]).

In the case of GTGILFMEM, the pIC50 is 5.00 with HLA-A*02:06 [6]; 5.11 in the test with HLA-A*02:03 (setting [9]); 4.58 with HLA-A*68:02 [7]; 5.20 with HLA-A*02:01 [2] (setting [9]); 5.66 with HLA-A*02:02 [8].

On to GVLHTKFWI, for which the negative logarithm of the IC50 (pIC50) with HLA-A*02:03 (setting [9]) is 4.91; with HLA-A*02:02 [1] (setting [9]), 4.78; with HLA-A*68:02 [7] it was 4.36; with HLA-A*02:06 [3] (setting [9]), 6.38; in the test with HLA-A*02:01 [5] (setting [9]), 5.57.

Turning to HVLLPFYET, the pIC50 with HLA-A*02:03 (setting [9]) was 4.73; in the test with HLA-A*02:02 [1] (setting [9]), 4.79; with HLA-A*02:06 [3] (setting [9]) it was 5.76; with HLA-A*68:02 [4] (setting [9]) it was 6.03; with HLA-A*02:01 [5] (setting [9]) it was 5.60.

For the sequence IQYRQQLELA, the negative-log IC50 (pIC50) in the test with HLA-A*02:06 [6] is at most 4.15; in the test with HLA-A*02:03 (setting [9]), 5.07; with HLA-A*68:02 [7] it was 4.89; with HLA-A*02:01 [2] (setting [9]), at most 4.15; in the test with HLA-A*02:02 [8] it was 5.36.

For the sequence IVDKFGKNHI, the pIC50 with HLA-A*02:06 [6] is 5.08; in the test with HLA-A*02:03 (setting [9]) it was 5.29; with HLA-A*68:02 [7] it was 4.91; with HLA-A*02:01 [2] (setting [9]), 4.95; with HLA-A*02:02 [8], 5.53.

Turning to IVPDADPPI, the pIC50 is 4.97 in the test with HLA-A*02:03 (setting [9]); 5.29 with HLA-A*02:02 [1] (setting [9]); 6.56 in the test with HLA-A*02:06 [3] (setting [9]); 5.82 with HLA-A*68:02 [4] (setting [9]); 6.13 with HLA-A*02:01 [5] (setting [9]).

Take IVPDIKLDA: the pIC50 with HLA-A*02:03 (setting [9]) was 4.80; in the test with HLA-A*02:02 [1] (setting [9]) it was 5.19; with HLA-A*02:01 [2] (setting [9]), 4.38; in the test with HLA-A*02:06 [3] (setting [9]), 5.46; in the test with HLA-A*68:02 [4] (setting [9]) it was 5.54.

For the sequence IVQLPKRGV, the pIC50 with HLA-A*02:03 (setting [9]) is 5.06; with HLA-A*02:02 [1] (setting [9]), 4.92; with HLA-A*02:01 [2] (setting [9]) it was 4.82; with HLA-A*02:06 [3] (setting [9]) it was 5.51; with HLA-A*68:02 [4] (setting [9]), 5.37.

KADAVVADL: the pIC50 with HLA-A*02:03 (setting [9]) was 4.91; with HLA-A*02:02 [1] (setting [9]), 5.29; with HLA-A*68:02 [7], 4.63; in the test with HLA-A*02:06 [3] (setting [9]), 5.66; with HLA-A*02:01 [5] (setting [9]), 5.40.

In the case of KLISEKETL, the pIC50 in the test with HLA-A*02:06 [6] is 5.12; in the test with HLA-A*02:03 (setting [9]), 4.61; with HLA-A*68:02 [7], at most 4.15; in the test with HLA-A*02:01 [2] (setting [9]) it was 4.99; with HLA-A*02:02 [8], 6.08.

As to LIFNVKSKLL, the pIC50 with HLA-A*02:06 [6] was 4.55; with HLA-A*02:03 (setting [9]), 5.17; with HLA-A*68:02 [7], 4.49; with HLA-A*02:01 [2] (setting [9]) it was 4.59; in the test with HLA-A*02:02 [8], 5.62.
